Tests used:
[1] = target: thermostabilized human ETB receptor (ETB-Y5), construct with an internal FLAG epitope tag (human) (UniProt P24530)
[2] = target: thermostabilized human ETB receptor (ETB-Y5) fused to SmBiT (human) (UniProt P24530)
[3] = target: human ETB receptor L252H I254T double mutant, construct with an internal FLAG epitope tag (human) (UniProt P24530)
[4] = target: T1, human ETA receptor (human) (UniProt P25101)
T1 sequence: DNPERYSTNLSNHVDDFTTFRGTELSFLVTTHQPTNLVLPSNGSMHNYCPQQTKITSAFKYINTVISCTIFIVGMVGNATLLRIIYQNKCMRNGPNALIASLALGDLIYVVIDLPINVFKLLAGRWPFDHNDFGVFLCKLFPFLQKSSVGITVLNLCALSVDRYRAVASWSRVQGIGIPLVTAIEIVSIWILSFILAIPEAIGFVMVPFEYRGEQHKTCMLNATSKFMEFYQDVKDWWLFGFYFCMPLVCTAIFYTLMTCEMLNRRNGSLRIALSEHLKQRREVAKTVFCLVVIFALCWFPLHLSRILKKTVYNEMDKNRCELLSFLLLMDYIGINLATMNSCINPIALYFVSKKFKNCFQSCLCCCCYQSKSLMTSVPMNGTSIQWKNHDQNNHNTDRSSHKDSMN

[5] = target: human ETB receptor, wild type, fused to SmBiT (ETB-SmBiT) (human) (UniProt P24530)
[6] = target: human ETB receptor, wild type, construct with an internal FLAG epitope tag (human) (UniProt P24530)
[7] = target: T2, human ETA receptor fused to SmBiT (ETA-SmBiT) (human) (UniProt P25101)
T2 sequence: T1 sequence

Substance	Emax, TGFα shedding assay, percent of that of ET-1 [1] [%]	Emax, NanoBiT β-arrestin recruitment assay, percent of that of ET-1 [2] [%]	change of EC50 against the wild type receptor, TGFα shedding assay [3] [fold]	AP-TGFα release (TGFα shedding assay), no activation at the concentration tested [4] [nM]	Emax, NanoBiT β-arrestin recruitment assay, percent of that of ET-1 [5] [%]	EC50, AP-TGFα release (TGFα shedding assay, G-protein activation), HEK293 cells [6] [nM]	Emax, TGFα shedding assay, percent of that of ET-1 [6] [%]	EC50 against that of ET-1, TGFα shedding assay [4] [fold]	EC50 against that of ET-1, NanoBiT β-arrestin recruitment assay [7] [fold]
IRL1620 (N-Suc-[E9, A11, 15] ET-1(8-21)) (peptide)	84	85	2	> 320	87	0.11	88	–	–
endothelin-3 (from UniProt P14138 97-117) (peptide)	–	–	–	–	–	–	–	5	5
